First the molecules themselves.
B1: E. coli phosphatidylserine decarboxylase (PSD) β-subunit, from PSD_(1–287) (domain or fragment, Escherichia coli, UniProt P0A8K1 1-253, looked up)
chain: MLNSFKLSLQYILPKLWLTRLAGWGASKRAGWLTKLVIDLFVKYYKVDMKEAQKPDTASYRTFNEFFVRPLRDEVRPIDTDPNVLVMPADGVISQLGKIEEDKILQAKGHNYSLEALLAGNYLMADLFRNGTFVTTYLSPRDYHRVHMPCNGILREMIYVPGDLFSVNHLTAQNVPNLFARNERVICLFDTEFGPMAQILVGATIVGSIETVWAGTITPPREGIIKRWTWPAGENDGSVALLKGQEMGRFKLG
notes: Made as one proenzyme chain (residues 1-287 with a C-terminal His6 tag) that cuts itself; the β-chain is the N-terminal product; also called β-chain; beta chain; source: E. coli BL21(DE3), DDM-solubilised, purified (HisTrap, SEC) as auto-cleaved PSD_(1–287)

Data set [1] has as its target T1, PSD1–287 (Escherichia coli, UniProt P0A8K1).
T1 construct: gene psd
As to the kind of experiment: X-ray structure ([…] Å); NaCNBH3 reduction, MALDI-TOF. The class given is binding. The settings on record: 1 mM lipid, 50 mM NaCNBH3, 37 °C, 14 h, pH 7.5; covalent; reduced Schiff base to Pvl-254.

Data set [2] concerns the target T2, PSD1–322 (Escherichia coli, UniProt P0A8K1, H144N).
T2 construct: gene psd; full length (1-322), C-terminal His6 tag, auto-cleaved 253/254 with Ser254 turned to pyruvoyl, expressed in E. coli BL21(DE3), solubilised in DDM
The experiment in a line: Schiff base reduction with NaCNBH3, MALDI-TOF. Format: binding. The conditions noted are these: 1 mM lipid, 50 mM NaCNBH3, 37 °C, 15 h; covalent; active site Pvl-254.

For data set [3], the target named is T3, PSD1–322 (Escherichia coli, UniProt P0A8K1, H144A).
T3 construct: gene psd; full length (1-322), C-terminal His6 tag, auto-cleaved 253/254 with Ser254 turned to pyruvoyl, expressed in E. coli BL21(DE3), solubilised in DDM
As to the kind of experiment: Schiff base reduction with NaCNBH3, MALDI-TOF. The class given is binding. The conditions noted are these: 1 mM lipid, 50 mM NaCNBH3, 37 °C, 15 h; covalent; active site Pvl-254.

For data set [4], the target named is T1, PSD1–287. As to the kind of experiment: Schiff base reduction with NaCNBH3, MALDI-TOF. The settings on record: 1 mM lipid, 50 mM NaCNBH3, 37 °C, 14 h, pH 7.5, covalent, decarboxylated. Format: binding.
Data set [5] deals with the molecule itself. As to the kind of experiment: crystal structure; apo PSD_(1–287) in DDM; sitting drop vapor diffusion at 20 °C; two crystal forms, Apo-PSD1 (1.90 Å) and Apo-PSD2 (2.63 Å).
Data set [6] deals with the molecule itself. The experiment in a line: crystal structure; PE-conjugated PSD_(1–287) in DDM; sitting drop vapor diffusion at 20 °C; 8PE-PSD (2.12 Å) and 10PE-PSD (2.70 Å).
Data set [7] deals with B1. The data set is described as above. The settings on record: both partners purified.
The target in data set [8] is B1. As to the kind of experiment: crystal structure; apo PSD_(1–287) in DDM; sitting drop vapor diffusion at 20 °C; two crystal forms, Apo-PSD1 (1.90 Å) and Apo-PSD2 (2.63 Å). The settings on record: both partners purified.

Square brackets hold non-standard residues; d marks the D form. Ends that are not written are not given here. * marks the point of attachment. Pyruvoyl = CC(=O)C(=O)*

T2 sequence (P0A8K1 1-253 H144N): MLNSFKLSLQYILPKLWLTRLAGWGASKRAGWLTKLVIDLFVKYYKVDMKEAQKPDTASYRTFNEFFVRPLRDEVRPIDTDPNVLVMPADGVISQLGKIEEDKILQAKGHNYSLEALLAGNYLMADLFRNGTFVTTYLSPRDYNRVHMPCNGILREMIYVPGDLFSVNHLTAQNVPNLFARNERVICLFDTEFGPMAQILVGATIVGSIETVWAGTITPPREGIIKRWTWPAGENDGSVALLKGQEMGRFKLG
T2 sequence (P0A8K1 254-322): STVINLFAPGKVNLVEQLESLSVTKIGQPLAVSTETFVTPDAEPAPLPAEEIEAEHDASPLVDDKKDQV
T3 sequence (P0A8K1 254-322): as above
T3 sequence (P0A8K1 1-253 H144A): as the sequence (P0A8K1 1-253 H144N) above, with N144A counted along it

In the case of `CCCCCCCC(=O)OC[C@H](COP(=O)(O)OCCN)OC(=O)CCCCCCC` [8PE, 8:0/8:0 PE], at PSD1–287 [1], the “% conjugation” value came out at 98%. Besides, the “Schiff base reduction with NaCNBH3, MALDI-TOF” value was “these proteins were able to form an adduct with 8PE, albeit at a reduced efficiency” on PSD1–322 [2] and “these proteins were able to form an adduct with 8PE, albeit at a reduced efficiency” on PSD1–322 [3].

Regarding `CCCCCCCCCC(=O)OC[C@H](COP(=O)(O)OC[C@H](N)C(=O)O)OC(=O)CCCCCCCCC` [10PS, 10:0/10:0 PS], the “% conjugation” value on PSD1–287 [4] (trapped as 10PE adduct of Pvl-254) turned out to be 97%.

As to `CCCCCCCCCCCCCC(=O)OC[C@H](COP(=O)(O)OC[C@H](N)C(=O)O)OC(=O)CCCCCCCCCCCCC` [14PS, 14:0/14:0 PS], the “% conjugation” value at PSD1–287 [4] (trapped as 14PE adduct of Pvl-254) worked out at 94%.

For the molecule B1, in data set [5], the binding result is recorded as “binds”.

B2: E. coli PSD_(1–287) αβ-heterodimer, apo (complex, Escherichia coli)
chain 1: MLNSFKLSLQYILPKLWLTRLAGWGASKRAGWLTKLVIDLFVKYYKVDMKEAQKPDTASYRTFNEFFVRPLRDEVRPIDTDPNVLVMPADGVISQLGKIEEDKILQAKGHNYSLEALLAGNYLMADLFRNGTFVTTYLSPRDYHRVHMPCNGILREMIYVPGDLFSVNHLTAQNVPNLFARNERVICLFDTEFGPMAQILVGATIVGSIETVWAGTITPPREGIIKRWTWPAGENDGSVALLKGQEMGRFKLG
chain 2: STVINLFAPGKVNLVEQLESLSVTKIGQPLAVST
modifications: pyruvoyl residue (Pvl-254) at the N-terminus, formed from Ser-254 on auto-cleavage
notes: β-chain of E. coli phosphatidylserine decarboxylase, residues 1-253; α-chain of E. coli phosphatidylserine decarboxylase, residues 254-287; The unit that pairs with itself into the (αβ)2 heterotetramer; also called Apo-PSD1; Apo-PSD2; source: E. coli BL21(DE3), DDM-solubilised, purified (HisTrap, SEC)
Turning to B2, the “stoichiometry N” value in data set [5] is 2 αβ-heterodimers.

B3: 8PE-PSD: αβ-heterodimer of E. coli PSD_(1–287) with 8:0/8:0 PE linked to Pvl-254 (complex, Escherichia coli)
chain 1: MLNSFKLSLQYILPKLWLTRLAGWGASKRAGWLTKLVIDLFVKYYKVDMKEAQKPDTASYRTFNEFFVRPLRDEVRPIDTDPNVLVMPADGVISQLGKIEEDKILQAKGHNYSLEALLAGNYLMADLFRNGTFVTTYLSPRDYHRVHMPCNGILREMIYVPGDLFSVNHLTAQNVPNLFARNERVICLFDTEFGPMAQILVGATIVGSIETVWAGTITPPREGIIKRWTWPAGENDGSVALLKGQEMGRFKLG
chain 2: STVINLFAPGKVNLVEQLESLSVTKIGQPLAVST
modifications: 8:0/8:0 PE covalently linked to the pyruvoyl residue Pvl-254 (reduced Schiff base)
notes: β-chain of E. coli phosphatidylserine decarboxylase, residues 1-253; α-chain of E. coli phosphatidylserine decarboxylase, residues 254-287; source: E. coli BL21(DE3), purified PSD_(1–287), conjugated with 8PE by NaCNBH3-dependent reduction of the Schiff base
For the molecule B3, the “stoichiometry N” value in data set [6] was 2 αβ-heterodimers.

B4: 10PE-PSD: αβ-heterodimer of E. coli PSD_(1–287) with 10:0/10:0 PE linked to Pvl-254 (complex, Escherichia coli)
chain 1: MLNSFKLSLQYILPKLWLTRLAGWGASKRAGWLTKLVIDLFVKYYKVDMKEAQKPDTASYRTFNEFFVRPLRDEVRPIDTDPNVLVMPADGVISQLGKIEEDKILQAKGHNYSLEALLAGNYLMADLFRNGTFVTTYLSPRDYHRVHMPCNGILREMIYVPGDLFSVNHLTAQNVPNLFARNERVICLFDTEFGPMAQILVGATIVGSIETVWAGTITPPREGIIKRWTWPAGENDGSVALLKGQEMGRFKLG
chain 2: STVINLFAPGKVNLVEQLESLSVTKIGQPLAVST
modifications: 10:0/10:0 PE covalently linked to the pyruvoyl residue Pvl-254 (reduced Schiff base)
notes: β-chain of E. coli phosphatidylserine decarboxylase, residues 1-253; α-chain of E. coli phosphatidylserine decarboxylase, residues 254-287
As for B4, in data set [6], the “stoichiometry N” value was 2 αβ-heterodimers.

B5: E. coli PSD α-subunit, from PSD_(1–287), conjugated with 8:0/8:0 PE (domain or fragment, Escherichia coli, UniProt P0A8K1 254-287, looked up)
chain: [Pyruvoyl]TVINLFAPGKVNLVEQLESLSVTKIGQPLAVST
modifications: not fully specified (residue 1); also: 8:0/8:0 PE linked to Pvl-254 by reduced Schiff base
notes: α-chain of E. coli phosphatidylserine decarboxylase, residues 254-287 of the construct PSD_(1–287); also called 8PE-conjugated α-chain; source: E. coli BL21(DE3), purified PSD_(1–287), conjugated with 8PE by NaCNBH3-dependent reduction of the Schiff base
In the case of B5, the binding result in data set [7] was “binds”.

B6: E. coli phosphatidylserine decarboxylase (PSD) α-subunit, from PSD_(1–287), apo (domain or fragment, Escherichia coli, UniProt P0A8K1 254-287, looked up)
chain: [Pyruvoyl]TVINLFAPGKVNLVEQLESLSVTKIGQPLAVST
notes: No removal of the His6 tag is described; also called α-chain; alpha chain; source: E. coli BL21(DE3), DDM-solubilised, purified (HisTrap, SEC) as auto-cleaved PSD_(1–287)
On to B6, for which the binding result in data set [8] was “binds”.

B7: E. coli PSD α-subunit, from PSD_(1–287), conjugated with 10:0/10:0 PE (domain or fragment, Escherichia coli, UniProt P0A8K1 254-287, looked up)
chain: [Pyruvoyl]TVINLFAPGKVNLVEQLESLSVTKIGQPLAVST
modifications: not fully specified (residue 1); also: 10:0/10:0 PE linked to Pvl-254 by reduced Schiff base
notes: α-chain of E. coli phosphatidylserine decarboxylase, residues 254-287 of the construct PSD_(1–287); also called 10PE-conjugated α-chain
In the case of B7, in data set [7], the binding result is recorded as “binds”.

The record behind these values is article PMC7952604, “Structural insights into phosphatidylethanolamine formation in bacterial membrane biogenesis” (Scientific Reports, 2021).
